The record followed here is patent US20160143985.

The target in series [1] is T1, Ac-YVAD-AMC (model substrate, from Enzo, Inc.).
T1 chain: YVAD

Series [2] addresses alpha-synuclein, wild-type full-length human (140 amino acids).

B1: caspase-1 (ICE; interleukin-1-beta converting enzyme), purified, activated (protein)
chain: NPAMPTSSGSEGNVKLCSLEEAQRIWKQKSAEIYPIMDKSSRTRLALIICNEEFDSIPRRTGAEVDITGMTMLLQNLGYSVDVKKNLTASDMTTELEAFAHRPEHKTSDSTFLVFMSHGIREGICGKKHSEQVPDILQLNAIFNMLNTKNCPSLKDKPKVIIIQACRGDSPGVVWFKDSVGVSGNLSLPTTEEFEDDAIKKAHIEKDFIAFCSSTPDNVSWRHPTMGSVFIGRLIEHMQEYACSCDVEEIFRKVRFSFEQPDGRAQMPTTERVTLTRCFYLFPGH
As to B1, the “activity against a model substrate” value in series [1] was 110 µM/min/mg. In series [2], the “Western blot of ICE digested alpha-synuclein with increasing amounts of ICE (2 to 12 µg)” value is listed as “Appearance of a smaller fragment of synuclein below 17 kD with intensity increasing with amount of ICE”; the “cleavage of alpha-synuclein in vitro (SDS-PAGE and western blot with anti-synuclein antibody)” value is on record as “Purified, activated caspase-1 does indeed cleave alpha-synuclein”.
